Columns and labels:
[1] = biological target: H1 hemagglutinin (A/South Carolina/1/1918) (Influenza A virus A/South …, UniProt Q9WFX3 18-520); test: yeast surface display titration
[2] = biological target: H3 hemagglutinin (A/Hong Kong/1/1968) (Influenza A virus A/Hong Kong/1/1968 …, UniProt Q91MA7 27-521); test: yeast surface display titration
H3 hemagglutinin (A/Hong Kong/1/1968), sequence (Q91MA7 27-521 limits assumed): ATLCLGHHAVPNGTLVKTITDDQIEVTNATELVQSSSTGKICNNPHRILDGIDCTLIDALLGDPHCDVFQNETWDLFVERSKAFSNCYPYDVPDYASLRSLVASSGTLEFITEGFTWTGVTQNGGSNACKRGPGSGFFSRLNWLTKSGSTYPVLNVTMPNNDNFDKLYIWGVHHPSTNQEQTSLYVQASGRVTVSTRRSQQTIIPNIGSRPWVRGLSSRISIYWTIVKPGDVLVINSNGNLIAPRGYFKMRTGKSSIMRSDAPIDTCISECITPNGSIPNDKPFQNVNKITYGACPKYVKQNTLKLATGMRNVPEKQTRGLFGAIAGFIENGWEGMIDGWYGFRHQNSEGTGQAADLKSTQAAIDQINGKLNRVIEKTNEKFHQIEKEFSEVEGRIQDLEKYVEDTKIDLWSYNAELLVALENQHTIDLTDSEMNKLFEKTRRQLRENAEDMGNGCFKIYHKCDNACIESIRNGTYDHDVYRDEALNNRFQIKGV

H1 hemagglutinin (A/South Carolina/1/1918), sequence (Q9WFX3 18-520 limits assumed): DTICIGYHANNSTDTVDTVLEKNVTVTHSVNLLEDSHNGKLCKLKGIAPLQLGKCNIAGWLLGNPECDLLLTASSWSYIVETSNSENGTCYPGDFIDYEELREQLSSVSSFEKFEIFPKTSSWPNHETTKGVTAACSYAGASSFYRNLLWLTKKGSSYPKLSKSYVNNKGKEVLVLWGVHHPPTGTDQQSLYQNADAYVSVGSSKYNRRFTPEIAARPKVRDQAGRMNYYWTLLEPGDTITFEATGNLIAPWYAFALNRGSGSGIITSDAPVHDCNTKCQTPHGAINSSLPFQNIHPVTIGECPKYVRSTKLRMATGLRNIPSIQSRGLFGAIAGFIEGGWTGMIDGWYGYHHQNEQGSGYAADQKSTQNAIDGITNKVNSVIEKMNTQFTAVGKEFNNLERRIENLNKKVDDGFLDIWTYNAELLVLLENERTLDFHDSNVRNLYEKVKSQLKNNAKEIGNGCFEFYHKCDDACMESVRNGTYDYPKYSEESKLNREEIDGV

B1: 52alt1-3 (designed binder)
chain: GIVNVPNPNTTKYQQLARSAIAIYNNHQNAHLEFVENLNVKEQVSYGAMYYITLAATDDAGKKKIYKAKVGVVESAGWVGVEEFKLV
binding result [1]: no binding | Kd [2]: 3 nM

— patent US20150376238A1 (University of Washington, published 2015)
